Measured values: US20160272693A1 (ZEALAND PHARMA A S, published 2016)
*1 amine or outer side, *2 acyl side, *3 side chain or, on linkers, in order; H or OH if unused. Bridges are numbered along the chain shown (N, C = ends). [ ]: non-standard residue; d: D form. The star is where a group is joined. C20 diacid = O=C(O)CCCCCCCCCCCCCCCCCCC(=O)*; γGlu = O=C(O)[C@H](CCC(=O)[*:2])N[*:1]; Hyp = O=C(O)[C@@H]1C[C@@H](O)CN1; NMeI = CC[C@H](C)[C@H](NC)C(=O)O; Aad = N[C@@H](CCCC(=O)O)C(=O)O; Sar = CNCC(=O)O

T1: human amylin receptor 3 (hAMYR3), hCTR2 co-expressed with human receptor activity modifying protein 3 (hRAMP3) (human, UniProt P30988 25-474; O60896 24-148)
T1 sequence (looked up) 1: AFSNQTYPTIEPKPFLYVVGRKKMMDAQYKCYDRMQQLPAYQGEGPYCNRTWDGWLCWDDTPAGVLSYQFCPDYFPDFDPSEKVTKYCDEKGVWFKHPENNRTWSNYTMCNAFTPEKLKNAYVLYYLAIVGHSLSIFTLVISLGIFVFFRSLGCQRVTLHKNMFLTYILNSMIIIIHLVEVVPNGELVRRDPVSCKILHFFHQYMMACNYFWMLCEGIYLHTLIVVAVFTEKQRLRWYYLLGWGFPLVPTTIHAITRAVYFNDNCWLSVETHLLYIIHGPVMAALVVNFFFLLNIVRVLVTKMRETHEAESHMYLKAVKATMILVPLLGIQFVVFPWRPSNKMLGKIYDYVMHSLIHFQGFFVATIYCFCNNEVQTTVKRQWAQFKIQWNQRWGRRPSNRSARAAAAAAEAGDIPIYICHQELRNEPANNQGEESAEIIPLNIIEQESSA
T1 sequence (looked up) 2: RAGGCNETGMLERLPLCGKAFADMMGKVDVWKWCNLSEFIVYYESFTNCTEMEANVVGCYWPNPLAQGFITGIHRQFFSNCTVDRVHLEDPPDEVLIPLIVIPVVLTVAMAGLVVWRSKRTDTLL

B1: [19CD]-isoGlu-R-C( )-GTAT-C( )-ATERLA-Aad-FLQRSSF-Gly(Me)-A-Ile(Me)-LSSTEVGSNT-Hyp-NH2 (Compd. 55) (peptide)
peptide: {C20 diacid}-[γGlu]RCGTATCATERLA[Aad]FLQRSSF[Sar]A[NMeI]LSSTEVGSNT[Hyp]-NH2
modifications: disulfide 3-8
SMILES: CC[C@H](C)[C@@H](C(=O)N[C@@H](CC(C)C)C(=O)N[C@@H](CO)C(=O)N[C@@H](CO)C(=O)N[C@H](C(=O)N[C@@H](CCC(=O)O)C(=O)N[C@H](C(=O)NCC(=O)N[C@@H](CO)C(=O)N[C@@H](CC(N)=O)C(=O)N[C@H](C(=O)N1C[C@H](O)C[C@H]1C(N)=O)[C@@H](C)O)C(C)C)[C@@H](C)O)N(C)C(=O)[C@H](C)NC(=O)CN(C)C(=O)[C@H](Cc1ccccc1)NC(=O)[C@H](CO)NC(=O)[C@H](CO)NC(=O)[C@H](CCCNC(=N)N)NC(=O)[C@H](CCC(N)=O)NC(=O)[C@H](CC(C)C)NC(=O)[C@H](Cc1ccccc1)NC(=O)[C@H](CCCC(=O)O)NC(=O)[C@H](C)NC(=O)[C@H](CC(C)C)NC(=O)[C@H](CCCNC(=N)N)NC(=O)[C@H](CCC(=O)O)NC(=O)[C@@H](NC(=O)[C@H](C)NC(=O)[C@@H]1CSSC[C@H](NC(=O)[C@H](CCCNC(=N)N)NC(=O)CC[C@H](NC(=O)CCCCCCCCCCCCCCCCCCC(=O)O)C(=O)O)C(=O)NCC(=O)N[C@@H]([C@@H](C)O)C(=O)N[C@@H](C)C(=O)N[C@@H]([C@@H](C)O)C(=O)N1)[C@@H](C)O
B2: [19CD]-isoGlu-R-C( )-QTAT-C( )-ATDRLA-Aad-FLQRSSF-Gly(Me)-A-Ile(Me)-LSSTEVGSNT-Hyp-NH2 (Compd. 89) (peptide)
peptide: {C20 diacid}-[γGlu]RCQTATCATDRLA[Aad]FLQRSSF[Sar]A[NMeI]LSSTEVGSNT[Hyp]-NH2
modifications: disulfide 3-8
SMILES: CC[C@H](C)[C@@H](C(=O)N[C@@H](CC(C)C)C(=O)N[C@@H](CO)C(=O)N[C@@H](CO)C(=O)N[C@H](C(=O)N[C@@H](CCC(=O)O)C(=O)N[C@H](C(=O)NCC(=O)N[C@@H](CO)C(=O)N[C@@H](CC(N)=O)C(=O)N[C@H](C(=O)N1C[C@H](O)C[C@H]1C(N)=O)[C@@H](C)O)C(C)C)[C@@H](C)O)N(C)C(=O)[C@H](C)NC(=O)CN(C)C(=O)[C@H](Cc1ccccc1)NC(=O)[C@H](CO)NC(=O)[C@H](CO)NC(=O)[C@H](CCCNC(=N)N)NC(=O)[C@H](CCC(N)=O)NC(=O)[C@H](CC(C)C)NC(=O)[C@H](Cc1ccccc1)NC(=O)[C@H](CCCC(=O)O)NC(=O)[C@H](C)NC(=O)[C@H](CC(C)C)NC(=O)[C@H](CCCNC(=N)N)NC(=O)[C@H](CC(=O)O)NC(=O)[C@@H](NC(=O)[C@H](C)NC(=O)[C@@H]1CSSC[C@H](NC(=O)[C@H](CCCNC(=N)N)NC(=O)CC[C@H](NC(=O)CCCCCCCCCCCCCCCCCCC(=O)O)C(=O)O)C(=O)N[C@@H](CCC(N)=O)C(=O)N[C@@H]([C@@H](C)O)C(=O)N[C@@H](C)C(=O)N[C@@H]([C@@H](C)O)C(=O)N1)[C@@H](C)O
B3: [19CD]-isoGlu-R-C( )-QTAT-C( )-ATERLAHFLQRSSF-Gly(Me)-A-Ile(Me)-LSSTEVGSNT-Hyp-NH2 (Compd. 57) (peptide)
peptide: {C20 diacid-γGlu}-RCQTATCATERLAHFLQRSSF[Sar]A[NMeI]LSSTEVGSNT[Hyp]-NH2
modifications: disulfide 2-7
SMILES: CC[C@H](C)[C@@H](C(=O)N[C@@H](CC(C)C)C(=O)N[C@@H](CO)C(=O)N[C@@H](CO)C(=O)N[C@H](C(=O)N[C@@H](CCC(=O)O)C(=O)N[C@H](C(=O)NCC(=O)N[C@@H](CO)C(=O)N[C@@H](CC(N)=O)C(=O)N[C@H](C(=O)N1C[C@H](O)C[C@H]1C(N)=O)[C@@H](C)O)C(C)C)[C@@H](C)O)N(C)C(=O)[C@H](C)NC(=O)CN(C)C(=O)[C@H](Cc1ccccc1)NC(=O)[C@H](CO)NC(=O)[C@H](CO)NC(=O)[C@H](CCCNC(=N)N)NC(=O)[C@H](CCC(N)=O)NC(=O)[C@H](CC(C)C)NC(=O)[C@H](Cc1ccccc1)NC(=O)[C@H](Cc1c[nH]cn1)NC(=O)[C@H](C)NC(=O)[C@H](CC(C)C)NC(=O)[C@H](CCCNC(=N)N)NC(=O)[C@H](CCC(=O)O)NC(=O)[C@@H](NC(=O)[C@H](C)NC(=O)[C@@H]1CSSC[C@H](NC(=O)[C@H](CCCNC(=N)N)NC(=O)CC[C@H](NC(=O)CCCCCCCCCCCCCCCCCCC(=O)O)C(=O)O)C(=O)N[C@@H](CCC(N)=O)C(=O)N[C@@H]([C@@H](C)O)C(=O)N[C@@H](C)C(=O)N[C@@H]([C@@H](C)O)C(=O)N1)[C@@H](C)O
B4: [19CD]-isoGlu-R-C( )-NTAT-C( )-ATQRLADFLQRSSF-Gly(Me)-A-Ile(Me)-LSSTEVGSNT-Hyp-NH2 (Compd. 49) (peptide)
peptide: {C20 diacid-γGlu}-RCNTATCATQRLADFLQRSSF[Sar]A[NMeI]LSSTEVGSNT[Hyp]-NH2
modifications: disulfide 2-7
SMILES: CC[C@H](C)[C@@H](C(=O)N[C@@H](CC(C)C)C(=O)N[C@@H](CO)C(=O)N[C@@H](CO)C(=O)N[C@H](C(=O)N[C@@H](CCC(=O)O)C(=O)N[C@H](C(=O)NCC(=O)N[C@@H](CO)C(=O)N[C@@H](CC(N)=O)C(=O)N[C@H](C(=O)N1C[C@H](O)C[C@H]1C(N)=O)[C@@H](C)O)C(C)C)[C@@H](C)O)N(C)C(=O)[C@H](C)NC(=O)CN(C)C(=O)[C@H](Cc1ccccc1)NC(=O)[C@H](CO)NC(=O)[C@H](CO)NC(=O)[C@H](CCCNC(=N)N)NC(=O)[C@H](CCC(N)=O)NC(=O)[C@H](CC(C)C)NC(=O)[C@H](Cc1ccccc1)NC(=O)[C@H](CC(=O)O)NC(=O)[C@H](C)NC(=O)[C@H](CC(C)C)NC(=O)[C@H](CCCNC(=N)N)NC(=O)[C@H](CCC(N)=O)NC(=O)[C@@H](NC(=O)[C@H](C)NC(=O)[C@@H]1CSSC[C@H](NC(=O)[C@H](CCCNC(=N)N)NC(=O)CC[C@H](NC(=O)CCCCCCCCCCCCCCCCCCC(=O)O)C(=O)O)C(=O)N[C@@H](CC(N)=O)C(=O)N[C@@H]([C@@H](C)O)C(=O)N[C@@H](C)C(=O)N[C@@H]([C@@H](C)O)C(=O)N1)[C@@H](C)O
B5: [19CD]-isoGlu-R-C( )-QTAT-C( )-ATERLAHFLQRSSNNF-Gly(Me)-A-Ile(Me)-LSSTEVGSNT-Hyp-NH2 (Compd. 99) (peptide)
peptide: {C20 diacid-γGlu}-RCQTATCATERLAHFLQRSSNNF[Sar]A[NMeI]LSSTEVGSNT[Hyp]-NH2
modifications: disulfide 2-7
SMILES: CC[C@H](C)[C@@H](C(=O)N[C@@H](CC(C)C)C(=O)N[C@@H](CO)C(=O)N[C@@H](CO)C(=O)N[C@H](C(=O)N[C@@H](CCC(=O)O)C(=O)N[C@H](C(=O)NCC(=O)N[C@@H](CO)C(=O)N[C@@H](CC(N)=O)C(=O)N[C@H](C(=O)N1C[C@H](O)C[C@H]1C(N)=O)[C@@H](C)O)C(C)C)[C@@H](C)O)N(C)C(=O)[C@H](C)NC(=O)CN(C)C(=O)[C@H](Cc1ccccc1)NC(=O)[C@H](CC(N)=O)NC(=O)[C@H](CC(N)=O)NC(=O)[C@H](CO)NC(=O)[C@H](CO)NC(=O)[C@H](CCCNC(=N)N)NC(=O)[C@H](CCC(N)=O)NC(=O)[C@H](CC(C)C)NC(=O)[C@H](Cc1ccccc1)NC(=O)[C@H](Cc1c[nH]cn1)NC(=O)[C@H](C)NC(=O)[C@H](CC(C)C)NC(=O)[C@H](CCCNC(=N)N)NC(=O)[C@H](CCC(=O)O)NC(=O)[C@@H](NC(=O)[C@H](C)NC(=O)[C@@H]1CSSC[C@H](NC(=O)[C@H](CCCNC(=N)N)NC(=O)CC[C@H](NC(=O)CCCCCCCCCCCCCCCCCCC(=O)O)C(=O)O)C(=O)N[C@@H](CCC(N)=O)C(=O)N[C@@H]([C@@H](C)O)C(=O)N[C@@H](C)C(=O)N[C@@H]([C@@H](C)O)C(=O)N1)[C@@H](C)O

biological target: T1, human amylin receptor 3 (hAMYR3), hCTR2 …; assay: cell-based or functional assay

hAMYR3 EC50 (nM); cAMP induction [nM] | Binder
0.08 | B1
0.2 | B2
0.11 | B3
0.15 | B4

biological target: T1, human amylin receptor 3 (hAMYR3), hCTR2 …; assay: cell-based or functional assay; remark: another data set of the same source

hAMYR3 EC50 (nM); cAMP induction [nM] | Binder
0.08 | B1
0.2 | B2
0.11 | B3
0.59 | B5
